Reference: the DeepSol protein solubility set

Assay: soluble on expression in E. coli; label from the status in PepcDB or PDB records

| Sequence | soluble on expression in E. coli |
| --- | --- |
| MGHHHHHHSHMTLQALSEANRRLWMEAMDGKEPIYHSPITKQQEMELNEVGFKFVRKCINIIETKGIKTEGLYRTVGSNIQVQKLLNAFFDPKCPGDVDFHNSDWDIKTITSSLKFYLRNLSEPVMTYRLHKELVSAAKSDNLDYRLGAIHSLVYKLPEKNREMLELLIRHLVNVCEHSKENLMTPSNMGVIFGPTLMRAQEDTVAAMMNIKFQNIVVEILIEHFGKIYLGPPEESAAPPVPPPRVTARRHKP | not soluble |
| MKSEILQQIKQYETIILHRHVRPDPDAYGSQMGLAEIIRASFPEKKVYSVGNDEVSLQFLGAVDEIADEVYKDALVIVCDTANQERVSDVRFSSGQKLIKIDHHPNDDAYGDLLWVDTTASSCSEMIVAFWETFSDELILNETAARLLYAGIVGDTGRFLYPSTTEETLRLSAHLVTFPFDRPALYRELYELPKNTVKLSGYILQNFVMDENGAATVYLSDTLLREFEVDPRDASALVSCIENVEGIKAWIMFIQEGPVFRARLRSKGPVINELAKEYGGGGHPLASGATLHNEEEIKEMTVKLARICAAKLEHHHHHH | soluble |
| MSLTMDVPPTIHVPLPPTSYPAFDAAIFTDIGGRKHQEDRFTLCPQLVPGRDDCAFFGVFDGTVGDFASENVKDLVVPQLISSPAWQEVTEMLRSDVPATEVDEKLPQLLDQAVDDMYKNADNELVKMCEQLNKDYASSTSVTAVLAKGFVAVGHLGDSRIAMGVETPNGLNCEFLTVDHKPDMPHEKLRIMRNGGSVEYLHNHNNKPFIRGGDFSFRKSRGEQPMQLQYSRAFGGKDLKMYGLSNQPDVRVVRVTPQHRVMILATDGLWDVMSAAQAVEIAMQARQEGRNPAQALVEMTLAEQQSRNQSADNITAMTVFFKKTDEGHHHHHH | soluble |
| MQLEDYTAATNIAKKDFMPGTTKIDRALTGQVAGLQVKRSSGMPGEGSYYNLRGIRTLTGDNAPLIVINGVPHMPDKTPSALIDGFTRDIFQFYHLQDIQNITILKGAEAAMYGSMGSNGVILIETDGTASN | not soluble |
| MNALTALSPLDGRYASKCDALRPFLSEFGLIHARVTVEVRWLQALSNHAGIIEVAPFSTETNAALDSIVANFSEDDANRIKEIERTTNHDVKAVEYFLKEKIAGLDELKNAGEFIHFACTSEDINNLSHALMLKNGREVLVSSMKQILNAIAALATTHAEQPMLSRTHGQTASPTTLGKEMANVAYRLARQIKQFENVELLGKINGAVGNYNAHLSAYPDIDWAAHSQAFVESLGLTFNPYTTQIEPHDYMAELFDALRRYNTILIDFNRDVWGYISLGYFKQKLKDGEVGSSTMPHKVNPIDFENSEGNLGIANAVLGHLGEKLPVSRWQRDLTDSTVLRNMGVGFAQSLIAFDACLKGIGKLELNAARLAEDLNQAQEVLAEPIQTVMRRYNVEKPYEKLKALTRGQAMTRDMMVNFVNGDELSQVPAEERARLAEMTPASYTGNAADQAKQINDLINKI | not soluble |
| MRIAANACPALVLNADFQPLSYFPLSLWSWQEAVKAVFMDRVCVVSEYDRVVHSPSLDLSLPSVISLKEYVPVAKRAAFTRFNVFLRDGFACQYCGIRLPAHDLTFDHVVPRSKGGVTAWNNVVTACGPCNMRKANRTPREAAMPLLQRPAEPSTHRLRNEGRSFPPGYLHESWRDFLYWDVELDPFLEHHHHHH | not soluble |
| MSLSVKILALDTATERCSVALLVGNTVYSRSEIAPRDHTKKVLPMVDEVLKEAGVTLQELDALAFGRGPGSFTGVRIGIGIAQGLAFGADLPMIGISTLAAMAQAAYRLQGLTHVASAIDARMEEVYWGRYVRQEDGSWQVAEAECVIAPALLAQTLTQDDLTQDEQIWATAGTGWDAYPALADLPLQLQTSEVLYPDAQDMAYLAQFELAQGNKVSVEQASPVYLRDTVAWKKLPGREEGHHHHHH | soluble |
| MEGMKGAVLITGASRGIGEATARLLHAKGYRVGLMARDEKRLQALAAELEGALPLPGDVREEGDWARAVAAMEEAFGELSALVNNAGVGVMKPVHELTLEEWRLVLDTNLTGAFLGIRHAVPALLRRGGGTIVNVGSLAGKNPFKGGAAYNASKFGLLGLAGAAMLDLREANVRVVNVLPGSVDTGFAGNTPGQAWKLKPEDVAQAVLFALEMPGHAMVSEIELRPTRPTSGPR | soluble |
| MTKFVAKKAILLLSLLLLGTAESKPLDAEQQHIDDQHVRKERQLKMAGSADPDVKMVANVTPATGSQPMSMTMGVPMNQMALSSVGGQLVRYPNYPGLIYPGLAPAPGLNGVPGLQTNIANNYPSYPDPNLTGSVPGFNPFGSFGYPGVAPMYGNSLMYPNPQLPNGFVPNPAVDNFQSLNNIVNMANVQGLAGGSSGIYPAPQGFGGVSPGLYPAPQGFGGANPGLYPAPQVNMQGLYPPSGGFLERMNMQGYAPGFLEHHHHHH | not soluble |
| GAMGSSRKSKAELQSEERKRIDELIESGKEEGMKIDLIDGKGRGVIATKQFSRGDFVVEYHGDLIEITDAKKREALYAQDPSTGCYMYYFQYLSKTYCVDATRETNRLGRLINHSKCGNCQTKLHDIDGVPHLILIASRDIAAGEELLYDYGDRSKASIEAHPWLKH | soluble |
| VSVITSEMKMELRMEGAVNGHKFVITGKGSGQPFEGIQNMDLTVIEGGPLPFAFDILTTVFDYGNRVFVKYPEEIVDYFKQSFPEGYSWERSMSYEDGGICLATNNITMKKDGSNCFVYEIRFDGVNFPANGPVMQRKTVKWEPSTEKMYVRDGVLKGDVNMALLLQGGGHYRCDFRTTYKAKKVVQLPDYHFVDHRIEITSHDKDYNKVKLYEHAKAHSGLPRLAK | soluble |
| MKDLKLDEHTGLVLEGGGMRGVFTCGVLDYLMDHDIRFPYAIGVSAGACNGLSYASRQRGRAKFSNIDLLEKYNYIGLKHLLRKRNILDFDLLFNEFPEHILPYDYDTYFASPERFVMVTTNCMTGEANYFEEKRDKSRVIDIVRASSSLPFVCPVTYVDGVPMLDGGIVDSIPLQRAIADGYTRNVVILTRNRGYRKDTKDIRIPSFVYRKYPKLREALSRRCAVYNEQLEMVEQMEDEGKIIVIRPQKPVMVDRIERDVQKLTEFYEEGYDCARNLFEF | soluble |
| SLMKITRIEAIPYAIPYSRPLKFASGEVSTAEHVLVRIHTDAGICGVADTPPRPYTYGETQDSIVSVVTKVFAPQLIGMDPMDRSKVQQLLGRTVNNPTAKGALDIALWDVIGISLGTPVHKLLGGFSDSMRVSHMLGFKAAAELLEEALRFRETYGIDTFKLKVGRRPLSLDVEACHVLREGLGADTEIYLDANRGWTANEAMEVLRRTEGLGLSMLEEPCDAAEAMGRRRLVQHSSIPIVGDESVPNLGDVSRELLSGGSNAICIKTARSGFTEAQQILGLCEGLGVDVTMGNQIDTQVGSLATVTFGAAFEASSRRAGELSNYLDMTDDLLAEPLEITDGAIRVRKAPGVGAAIDADKLQKY | not soluble |
| MNIMSESIPQFYKRIQRCDPQLGTTYSKENPYFNVLSRQCNFGTVQFSYRDFYKVTLIIGVGKLYYADKWILVNRPAMLFSNPLVPYAWESISEEQKGMFCIFNEQFVQSEEKNGSLANTPLFKVTGDKVFFLNDAQVAKVMDIYTQMQEENQSDYANKHDVLRCYLHLLIHTALKMQESNKYESHPNASQRITELFIELLDRQFPVDYPHSVLSLRTPADYANRLSIHVNHLNKVVKDTTGKTTSTMIAERIIKECTQYLLHSNFSISEIAYSLGFENMAYFSKFYRKHTGKSPSEIREQQLFDLCK | not soluble |
| AVSFIGSTENDVGPSQGSYSSTHAMDNLPFVYNTGYNIGYQNANVWRISGGFCVGLDGKVDLPVVGSLDGQSIYGLTEEVGLLIWMGDTNYSRGTAMSGNSWENVFSGWCVGNYVSTQGLSVHVRPVILKRNSSAQYSVQKTSIGSIRMRPYNGSSAGSVQTTVNFSLNPFTLNDTVT | soluble |
| MRVIKIQTKGDVRISYAIETIRINEWTKAIAEVIFEKDGVPEWEIEAVSRMSSDYVGSLGSEFEILDVSIDRRTNSYKIKGKYEGFYLAGTPIEAIEKDIVESVLSLRFESLDVYEVNIEDPFEDYDPSEYWELMDWEELEHHHHHH | not soluble |
| MGENITTRGVDLLGLPTGTRLRLGESALVELTGLRNPCSQLDNYQPGLTAAVLGRDEQGNLIRKAGVMAIVLEDGEVRPGDAIDIQLPPLPHRALEKV | not soluble |
